± gives the uncertainty stated by the source.
B1: DnaJ homolog subfamily C member 5, residues 16 to 77; numbered along this chain, Q9H3Z4 (parent)
chain: LYHVLGLDKNATSDDIKKSYRKLALKYHPDKNPDNPEAADKFKEINNAHAILTDATKRNIYD

Variants of: B1
Assay: abundance fitness (aPCA) (normalised: wild type 0, dead -1); higher = more abundant; growth selection in yeast, the domain comes from the species named
Settings: Homo sapiens

Abundance fitness of substitutions, site by site:
I60: C 0.109 ± 0.1 | H -0.135 ± 0.2 | G 0.223 ± 0.065 | E 0.522 ± 0.094 | M 0.114 ± 0.1 | P -0.039 ± 0.088 | A 0.257 ± 0.092 | L 0.077 ± 0.093 | S 0.258 ± 0.076 | T 0.054 ± 0.12 | K 0.197 ± 0.11 | Y -0.074 ± 0.16 | D 0.493 ± 0.21 | W 0.008 ± 0.09 | Q 0.168 ± 0.13 | R 0.08 ± 0.059 | V 0.176 ± 0.093
R58: D -0.348 ± 0.34 | N -0.114 ± 0.33 | G -0.21 ± 0.083 | L -0.43 ± 0.075 | E 0.109 ± 0.12 | V -0.363 ± 0.083 | A -0.044 ± 0.087 | M -0.471 ± 0.12 | W -0.636 ± 0.08 | S -0.114 ± 0.072 | C -0.442 ± 0.15 | H -0.275 ± 0.16 | F -0.617 ± 0.2 | I -0.503 ± 0.13 | P -0.119 ± 0.096 | Q -0.161 ± 0.16 | Y -0.575 ± 0.23
Y61: N -0.199 ± 0.16 | M -0.218 ± 0.12 | S 0.182 ± 0.067 | D 0.22 ± 0.12 | F -0.273 ± 0.12 | T 0.073 ± 0.11 | R 0.03 ± 0.076 | I -0.129 ± 0.11 | C -0.063 ± 0.098 | Q 0.104 ± 0.14 | E 0.157 ± 0.12 | H 0.054 ± 0.21 | L -0.09 ± 0.087 | W -0.511 ± 0.12 | P 0.244 ± 0.12 | A 0.165 ± 0.089 | G 0.226 ± 0.063 | K -0.174 ± 0.15 | V 0.002 ± 0.083
D62: N -0.465 ± 0.12 | V -0.662 ± 0.14 | R -0.428 ± 0.4 | K -0.661 ± 0.27 | L -0.472 ± 0.28 | Q -0.58 ± 0.38 | W -0.546 ± 0.27 | S -0.421 ± 0.13 | P -0.349 ± 0.17 | A -0.188 ± 0.12 | Y -0.849 ± 0.29 | T -0.894 ± 0.49 | G -0.16 ± 0.083 | M -0.743 ± 0.15
K57: Q -0.1 ± 0.12 | I -0.511 ± 0.13 | M -0.43 ± 0.17 | P -0.593 ± 0.16 | T -0.415 ± 0.13 | S -0.349 ± 0.11 | A -0.079 ± 0.093 | F -1.01 ± 0.13 | N -0.575 ± 0.33 | L -0.399 ± 0.079 | R -0.059 ± 0.081 | W -0.99 ± 0.13 | E -0.023 ± 0.096 | D -0.079 ± 0.14 | C -0.672 ± 0.14 | V -0.656 ± 0.1 | G -0.373 ± 0.079
N59: R -0.107 ± 0.072 | E 0.152 ± 0.11 | F -0.151 ± 0.16 | D -0.234 ± 0.19 | V -0.121 ± 0.1 | G 0.101 ± 0.077 | M -0.179 ± 0.1 | H -0.125 ± 0.14 | I -0.044 ± 0.12 | A 0.197 ± 0.12 | Q 0.007 ± 0.1 | W -0.396 ± 0.087 | L -0.139 ± 0.063 | S -0.029 ± 0.089 | C 0.032 ± 0.11 | Y -0.471 ± 0.17
T56: V -0.396 ± 0.1 | A -0.233 ± 0.15 | K -0.101 ± 0.12 | G -0.09 ± 0.065 | Q -0.417 ± 0.18 | R -0.246 ± 0.066 | E 0.097 ± 0.16 | S -0.15 ± 0.092 | C -0.069 ± 0.12 | Y -0.424 ± 0.27 | D -0.095 ± 0.2 | I -0.425 ± 0.14 | W -0.475 ± 0.13 | H -0.264 ± 0.11 | F -0.499 ± 0.26 | P -0.516 ± 0.11 | L -0.421 ± 0.09 | M -0.334 ± 0.21
A55: S -0.135 ± 0.093 | P -0.036 ± 0.14 | W -0.413 ± 0.096 | N -0.117 ± 0.15 | Y -0.423 ± 0.27 | Q 0.028 ± 0.11 | V -0.14 ± 0.1 | M -0.258 ± 0.12 | L -0.26 ± 0.093 | R -0.156 ± 0.072
